{
  "source": "paper PMC12990809",
  "assay_in_all_cases": "pulldown",
  "key": {"[1]": {"target": "T1, RBM47 ins277_K (Meleagris gallopavo) (UniProt G1NI04)", "T1 sequence": "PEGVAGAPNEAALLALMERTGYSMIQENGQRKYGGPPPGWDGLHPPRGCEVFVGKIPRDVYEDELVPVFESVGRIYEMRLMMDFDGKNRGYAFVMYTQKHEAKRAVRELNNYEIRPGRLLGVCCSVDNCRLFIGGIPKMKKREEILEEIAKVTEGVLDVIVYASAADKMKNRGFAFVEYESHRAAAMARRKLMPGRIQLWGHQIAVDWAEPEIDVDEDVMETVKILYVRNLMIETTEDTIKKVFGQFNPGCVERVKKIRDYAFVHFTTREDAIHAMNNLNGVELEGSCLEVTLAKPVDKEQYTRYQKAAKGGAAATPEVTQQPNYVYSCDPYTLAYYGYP", "settings": "20 nM protein, 1.5 uM RNA pool; 20 mM HEPES pH 7.8, 70 mM KCl, 10 mM NaCl, 10% glycerol, 2 mM DTT, 0.1 ug/uL BSA; 30 min, 4 C"}, "[2]": {"target": "T2, PK14112.1 (Cannabis sativa) (UniProt A0A7J6DPE0)", "T2 sequence": "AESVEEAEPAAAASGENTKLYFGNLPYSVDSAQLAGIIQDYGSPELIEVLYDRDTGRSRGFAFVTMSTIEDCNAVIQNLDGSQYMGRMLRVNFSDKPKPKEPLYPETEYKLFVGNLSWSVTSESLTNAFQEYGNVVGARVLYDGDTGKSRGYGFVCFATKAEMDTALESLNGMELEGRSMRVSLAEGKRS", "settings": "20 nM protein, 1.5 uM RNA pool; 20 mM HEPES pH 7.8, 70 mM KCl, 10 mM NaCl, 10% glycerol, 2 mM DTT, 0.1 ug/uL BSA; 30 min, 4 C"}, "MBNL2 (Homo sapiens)": {"target": "T3, MBNL2 (Homo sapiens) (UniProt Q5VZF2)", "T3 sequence": "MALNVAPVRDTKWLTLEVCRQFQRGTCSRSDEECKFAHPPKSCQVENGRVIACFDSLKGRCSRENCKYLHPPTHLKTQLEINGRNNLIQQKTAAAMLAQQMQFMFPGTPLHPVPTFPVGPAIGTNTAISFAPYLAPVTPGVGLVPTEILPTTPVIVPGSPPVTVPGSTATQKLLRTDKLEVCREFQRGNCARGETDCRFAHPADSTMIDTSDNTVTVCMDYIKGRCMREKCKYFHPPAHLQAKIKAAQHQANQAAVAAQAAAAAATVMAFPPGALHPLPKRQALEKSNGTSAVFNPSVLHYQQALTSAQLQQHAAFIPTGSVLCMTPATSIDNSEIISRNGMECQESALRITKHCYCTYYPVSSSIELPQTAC", "settings": "20 nM protein, 1.5 uM RNA pool; 20 mM HEPES pH 7.8, 70 mM KCl, 10 mM NaCl, 10% glycerol, 2 mM DTT, 0.1 ug/uL BSA; 30 min, 4 C"}, "[3]": {"target": "T4, rsp-2 (Caenorhabditis elegans) (UniProt Q23120)", "T4 sequence": "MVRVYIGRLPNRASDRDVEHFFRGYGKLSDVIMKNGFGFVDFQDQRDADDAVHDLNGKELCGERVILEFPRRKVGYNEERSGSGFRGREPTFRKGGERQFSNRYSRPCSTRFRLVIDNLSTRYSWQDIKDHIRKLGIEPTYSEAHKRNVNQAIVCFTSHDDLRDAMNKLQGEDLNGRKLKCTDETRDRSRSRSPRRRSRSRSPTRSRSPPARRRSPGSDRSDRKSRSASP", "settings": "20 nM protein, 1.5 uM RNA pool; 20 mM HEPES pH 7.8, 70 mM KCl, 10 mM NaCl, 10% glycerol, 2 mM DTT, 0.1 ug/uL BSA; 30 min, 4 C"}, "[4]": {"target": "T5, PK26404.1 L183S (Cannabis sativa) (UniProt A0A7J6ELY7)", "T5 sequence": "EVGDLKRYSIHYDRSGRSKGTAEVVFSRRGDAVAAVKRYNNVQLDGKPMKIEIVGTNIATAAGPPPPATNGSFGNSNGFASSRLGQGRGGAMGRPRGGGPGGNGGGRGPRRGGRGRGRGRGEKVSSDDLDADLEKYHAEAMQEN", "settings": "20 nM protein, 1.5 uM RNA pool; 20 mM HEPES pH 7.8, 70 mM KCl, 10 mM NaCl, 10% glycerol, 2 mM DTT, 0.1 ug/uL BSA; 30 min, 4 C"}, "HNRNPA2B1 (Homo sapiens)": {"target": "HNRNPA2B1 (Homo sapiens) (UniProt P22626)", "sequence (P22626 1-233)": "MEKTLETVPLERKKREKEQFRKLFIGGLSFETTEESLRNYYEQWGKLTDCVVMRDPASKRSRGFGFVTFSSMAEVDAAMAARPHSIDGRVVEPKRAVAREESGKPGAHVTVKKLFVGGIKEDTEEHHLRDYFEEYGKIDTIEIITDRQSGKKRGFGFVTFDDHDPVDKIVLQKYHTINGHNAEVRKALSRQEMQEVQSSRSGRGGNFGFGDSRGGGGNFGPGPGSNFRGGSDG", "settings": "20 nM protein, 1.5 uM RNA pool; 20 mM HEPES pH 7.8, 70 mM KCl, 10 mM NaCl, 10% glycerol, 2 mM DTT, 0.1 ug/uL BSA; 30 min, 4 C (protocol of this paper; not …); cited from earlier work"}, "[5]": {"target": "T6, PK23225.1 P17S (Cannabis sativa) (UniProt A0A7J6EWR7)", "T6 sequence": "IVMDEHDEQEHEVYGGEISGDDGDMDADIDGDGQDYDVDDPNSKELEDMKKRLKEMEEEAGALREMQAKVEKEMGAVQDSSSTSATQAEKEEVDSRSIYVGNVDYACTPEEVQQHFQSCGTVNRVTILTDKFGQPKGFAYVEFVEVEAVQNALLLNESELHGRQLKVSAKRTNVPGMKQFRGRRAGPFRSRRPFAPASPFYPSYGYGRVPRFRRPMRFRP", "settings": "20 nM protein, 1.5 uM RNA pool; 20 mM HEPES pH 7.8, 70 mM KCl, 10 mM NaCl, 10% glycerol, 2 mM DTT, 0.1 ug/uL BSA; 30 min, 4 C"}, "[6]": {"target": "T7, PK20300.1 (Cannabis sativa) (UniProt A0A803QWA0)", "T7 sequence": "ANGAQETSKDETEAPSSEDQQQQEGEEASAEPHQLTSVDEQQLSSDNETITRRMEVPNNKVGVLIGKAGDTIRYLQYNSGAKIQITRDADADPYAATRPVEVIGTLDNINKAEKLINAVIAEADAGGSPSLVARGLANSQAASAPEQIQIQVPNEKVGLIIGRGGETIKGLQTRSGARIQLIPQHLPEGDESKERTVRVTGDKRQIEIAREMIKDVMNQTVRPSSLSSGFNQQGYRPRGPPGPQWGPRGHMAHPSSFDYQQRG", "settings": "20 nM protein, 1.5 uM RNA pool; 20 mM HEPES pH 7.8, 70 mM KCl, 10 mM NaCl, 10% glycerol, 2 mM DTT, 0.1 ug/uL BSA; 30 min, 4 C"}, "[7]": {"target": "T8, DDB_G0270634 (Dictyostelium discoideum) (UniProt Q55D63)", "T8 sequence": "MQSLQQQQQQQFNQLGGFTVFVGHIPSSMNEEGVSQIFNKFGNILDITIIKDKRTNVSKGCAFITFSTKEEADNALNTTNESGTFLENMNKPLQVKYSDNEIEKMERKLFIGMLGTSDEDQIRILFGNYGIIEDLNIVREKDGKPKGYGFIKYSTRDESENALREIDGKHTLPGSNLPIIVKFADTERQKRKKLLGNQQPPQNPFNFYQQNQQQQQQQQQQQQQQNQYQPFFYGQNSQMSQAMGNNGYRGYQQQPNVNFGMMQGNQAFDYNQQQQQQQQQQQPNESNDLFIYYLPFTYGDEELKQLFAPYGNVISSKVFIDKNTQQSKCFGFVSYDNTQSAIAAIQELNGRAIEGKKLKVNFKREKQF", "settings": "20 nM protein, 1.5 uM RNA pool; 20 mM HEPES pH 7.8, 70 mM KCl, 10 mM NaCl, 10% glycerol, 2 mM DTT, 0.1 ug/uL BSA; 30 min, 4 C"}, "[8]": {"target": "T9, CBG15837 R479I (Caenorhabditis briggsae) (UniProt A8XMX3)", "T9 sequence": "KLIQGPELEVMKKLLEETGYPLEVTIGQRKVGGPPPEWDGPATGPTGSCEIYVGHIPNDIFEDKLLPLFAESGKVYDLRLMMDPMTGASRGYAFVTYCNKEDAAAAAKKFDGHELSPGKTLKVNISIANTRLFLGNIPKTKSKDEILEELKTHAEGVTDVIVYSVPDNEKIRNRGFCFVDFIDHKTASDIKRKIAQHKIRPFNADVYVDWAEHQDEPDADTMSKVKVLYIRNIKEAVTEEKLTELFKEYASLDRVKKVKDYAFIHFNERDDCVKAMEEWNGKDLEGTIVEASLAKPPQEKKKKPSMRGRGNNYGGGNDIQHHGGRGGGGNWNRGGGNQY", "settings": "20 nM protein, 1.5 uM RNA pool; 20 mM HEPES pH 7.8, 70 mM KCl, 10 mM NaCl, 10% glycerol, 2 mM DTT, 0.1 ug/uL BSA; 30 min, 4 C"}},
  "data": [
    {"sequence": "AGAUGA [RNAcompete motif RNCMPT00394]", "values": [
      {"measurement": "binding signal (z-score (mean of top ten 7-mers))", "setting": "[1]", "value": 8.98}
    ]},
    {"sequence": "GAUACUG [RNAcompete motif RNCMPT00392]", "values": [
      {"measurement": "binding signal (z-score (mean of top ten 7-mers))", "setting": "[2]", "value": 8.21}
    ]},
    {"sequence": "GCUUGC [RNAcompete motif RNCMPT00401]", "values": [
      {"measurement": "binding signal (z-score (mean of top ten 7-mers))", "setting": "MBNL2 (Homo sapiens)", "value": 10.7}
    ]},
    {"sequence": "GGAGGAG [RNAcompete motif RNCMPT00352]", "values": [
      {"measurement": "binding signal (z-score (mean of top ten 7-mers))", "setting": "[3]", "value": 9.21}
    ]},
    {"sequence": "GCGCGC [RNAcompete motif RNCMPT00364]", "values": [
      {"measurement": "binding signal (z-score (mean of top ten 7-mers))", "setting": "[4]", "value": 6.8}
    ]},
    {"sequence": "UAGGGA [RNAcompete motif RNCMPT00024]", "values": [
      {"measurement": "binding signal (z-score (mean of top ten 7-mers))", "setting": "HNRNPA2B1 (Homo sapiens)", "value": 8.86}
    ]},
    {"sequence": "AAAAAGA [RNAcompete motif RNCMPT00370]", "values": [
      {"measurement": "binding signal (z-score (mean of top ten 7-mers))", "setting": "[5]", "value": 12}
    ]},
    {"sequence": "AGCAUGA [RNAcompete motif RNCMPT00360]", "values": [
      {"measurement": "binding signal (z-score (mean of top ten 7-mers))", "setting": "[6]", "value": 11.4}
    ]},
    {"sequence": "UUUUUGU [RNAcompete motif RNCMPT00399]", "values": [
      {"measurement": "binding signal (z-score (mean of top ten 7-mers))", "setting": "[7]", "value": 8.63}
    ]},
    {"sequence": "AAAAAUUU [RNAcompete motif RNCMPT00344]", "values": [
      {"measurement": "binding signal (z-score (mean of top ten 7-mers))", "setting": "[8]", "value": 9.1}
    ]}
  ]
}
